The values below come from PMC3474823.

This experiment deals with HA-LIMK2 (pcDNA3-(HA)2-LIMK2) (UniProt P53671).
Chain of UniProt P53671 (P53671 whole entry): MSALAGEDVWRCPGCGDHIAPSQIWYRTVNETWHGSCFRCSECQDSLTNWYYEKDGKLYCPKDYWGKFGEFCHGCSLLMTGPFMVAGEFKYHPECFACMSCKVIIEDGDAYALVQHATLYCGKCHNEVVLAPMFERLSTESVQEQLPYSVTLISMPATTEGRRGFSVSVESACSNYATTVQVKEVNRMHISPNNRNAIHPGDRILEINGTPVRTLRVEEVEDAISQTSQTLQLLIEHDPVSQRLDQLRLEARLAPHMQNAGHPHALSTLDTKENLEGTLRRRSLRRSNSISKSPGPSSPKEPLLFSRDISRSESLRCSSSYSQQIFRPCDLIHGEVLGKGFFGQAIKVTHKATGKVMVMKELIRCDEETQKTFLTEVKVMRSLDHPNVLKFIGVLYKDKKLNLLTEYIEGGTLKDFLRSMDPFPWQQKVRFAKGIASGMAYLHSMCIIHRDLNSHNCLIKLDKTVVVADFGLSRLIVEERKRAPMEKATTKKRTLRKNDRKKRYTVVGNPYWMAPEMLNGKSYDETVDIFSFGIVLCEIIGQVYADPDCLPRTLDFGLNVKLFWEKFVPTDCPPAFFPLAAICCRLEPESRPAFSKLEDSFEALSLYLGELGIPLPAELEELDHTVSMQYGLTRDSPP

“flag-SecPH (p3XFlag-SecPH) (domain or fragment)” displayed a kinase activity of anti-HA-LIMK2 immunoprecipitate on GST-cofilin (32P, P-cofilin), cells cotransfected with SecPH against the control Galectin-3 of 20%.
